Assay [1] has as its target T1, human MIP-1β/CCL4 (human, UniProt Q8NHW4 24-92).
T1 construct: also called Biotin-MIP-1β
T1 chain: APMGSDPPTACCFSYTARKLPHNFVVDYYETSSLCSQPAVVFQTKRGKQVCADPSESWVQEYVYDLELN
The experiment in a line: ELISA, hybridoma fusion-well supernatant on biotinylated chemokine on streptavidin plate; background approx. 0.150. For orientation: In an ELISA, binding on a coated surface is turned into a signal by an enzyme label.

Assay [2] concerns the target T2, human MCP-1/CCL2 (human, UniProt P13500 24-99).
T2 construct: also called Biotin-MCP1
Described as above.

Assay [3] addresses T3, human RANTES/CCL5 (human, UniProt P13501 24-91).
T3 construct: also called Biotin-RANTES
T3 sequence: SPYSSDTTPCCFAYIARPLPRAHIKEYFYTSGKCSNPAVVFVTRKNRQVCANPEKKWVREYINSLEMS
The assay is described as above.

The target in assay [4] is T4, human MIP-1α/CCL3 (human, UniProt P10147 24-92).
T4 construct: also called Biotin-MIP-1α
T4 sequence: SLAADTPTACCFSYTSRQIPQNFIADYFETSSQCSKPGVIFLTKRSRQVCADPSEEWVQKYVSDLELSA
Put plainly: ELISA, hybridoma fusion-well supernatant on coated MIP-1α; background approx. 0.150.

In assay [5] the target is T5, ELC.
T5 construct: also called ELC/MIP-3β/CCL19; CCL19
T5 chemokine: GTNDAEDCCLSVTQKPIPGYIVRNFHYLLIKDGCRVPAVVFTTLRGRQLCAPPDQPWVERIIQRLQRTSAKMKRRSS
Put plainly: MSD electrochemiluminescence assay; chemokine coated at 1 µg/mL, 7D12A at 3 µg/mL; background = BSA.

For assay [6], the target named is T6, Eotaxin.
T6 construct: also called Eotaxin/CCL11; CCL11
T6 sequence (chemokine, as listed by the source): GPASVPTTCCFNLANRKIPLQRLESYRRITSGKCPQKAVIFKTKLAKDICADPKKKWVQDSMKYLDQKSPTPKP
The experiment in a line: MSD electrochemiluminescence assay; chemokine coated at 1 µg/mL, 18V4F at 3 µg/mL; background = BSA.

Assay [7] has as its target T7, HCC-4.
T7 construct: also called HCC-4/CCL16; CCL16
T7 chemokine: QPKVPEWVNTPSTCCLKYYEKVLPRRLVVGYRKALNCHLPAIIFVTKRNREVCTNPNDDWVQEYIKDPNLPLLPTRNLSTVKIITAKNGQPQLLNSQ
Described as above.

In assay [8] the target is T8, human PARC/CCL18 (human, UniProt P55774 21-89).
T8 sequence: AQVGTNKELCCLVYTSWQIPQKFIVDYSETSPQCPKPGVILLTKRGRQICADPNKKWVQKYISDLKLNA
The description is as above.

Assay [9] concerns the target T9, MCP-4.
T9 construct: also called MCP-4/CCL13; CCL13
The assay is described as above.

The target of assay [10] is T10, I-309.
T10 construct: also called I-309/CCL1; CCL1
T10 chemokine: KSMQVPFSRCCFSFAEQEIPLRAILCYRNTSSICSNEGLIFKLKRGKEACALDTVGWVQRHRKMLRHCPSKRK
The assay is described as above.

In assay [11] the target is T5, ELC. The assay is described as above.
Assay [12] has as its target T11, human MPIF-1/CCL23 (human, UniProt P55773 46-120).
T11 sequence: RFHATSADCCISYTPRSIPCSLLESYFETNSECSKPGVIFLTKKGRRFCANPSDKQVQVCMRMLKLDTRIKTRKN
The assay is described as above.

For assay [13], the target named is T12, MCP-3.
T12 construct: also called MCP-3/CCL7; CCL7
T12 sequence (chemokine, as listed by the source): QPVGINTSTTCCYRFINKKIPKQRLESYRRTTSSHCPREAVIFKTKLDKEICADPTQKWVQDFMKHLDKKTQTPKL
Described as above.

Assay [14] deals with T13, human HCC-2/MIP-1δ/CCL15 (human, UniProt Q16663 46-113).
T13 sequence: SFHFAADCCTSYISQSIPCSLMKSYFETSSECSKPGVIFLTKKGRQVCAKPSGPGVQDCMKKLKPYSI
The assay is described as above.

Assay [15] has as its target T2, human MCP-1/CCL2. The description is as above.
Assay [16] addresses T14, Eotaxin-2.
T14 construct: also called Eotaxin-2/CCL24; CCL24
T14 chemokine: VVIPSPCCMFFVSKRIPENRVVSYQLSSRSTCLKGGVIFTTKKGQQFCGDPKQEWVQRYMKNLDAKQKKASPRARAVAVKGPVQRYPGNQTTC
The assay is described as above.

The target of assay [17] is T15, MDC.
T15 construct: also called MDC/CCL22; CCL22
T15 chemokine: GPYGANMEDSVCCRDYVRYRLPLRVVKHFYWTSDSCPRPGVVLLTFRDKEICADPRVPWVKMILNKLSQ
The description is as above.

Assay [18] addresses T16, MIP3-α.
T16 construct: also called LARC/MIP-3α/CCL20; CCL20
The assay is described as above.

Assay [19] deals with T17, human HCC-1/CCL14/CCL14a (human, UniProt Q16627 28-93).
T17 sequence: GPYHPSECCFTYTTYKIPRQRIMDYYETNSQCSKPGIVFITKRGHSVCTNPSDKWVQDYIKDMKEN
The assay is described as above.

T2 sequence (P13500 24-99 limits assumed): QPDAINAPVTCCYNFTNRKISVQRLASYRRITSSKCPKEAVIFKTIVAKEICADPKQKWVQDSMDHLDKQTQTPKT
T9 sequence (chemokine, as listed by the source): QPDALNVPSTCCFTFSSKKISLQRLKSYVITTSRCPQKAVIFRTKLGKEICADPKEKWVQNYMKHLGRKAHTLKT
T16 sequence (chemokine, as listed by the source): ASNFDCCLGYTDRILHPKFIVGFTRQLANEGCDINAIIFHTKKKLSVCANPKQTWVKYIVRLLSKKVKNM

B1: monoclonal antibody 7D12A (antibody, V domains shown)
VH: EVHLQESGPSLVKPSQTLSLTCSVTGDSITNGYWNWIRKFPGNKLDYMGYISYDGNTYYNPSLKSRFSITRDTSKNQYYLQLNSVTTEDTATYYCSRGDYGTYVMDYWGQGTSVTVSS
VL: NIVLTQSPVSLAVSLGQRATISCRASESVDSHGNSFMHWYQQKPGQPPKLLIYLASNLESGVPARFTGGGSGSDFTLTIDPVEADDVGTYYCQQNNEDPYTFGGGTKLEIK
notes: also called MAb 7D12A
B1: the ELISA signal in [1] turned out to be 2.68; in assay [2], 0.246; in assay [3], 0.178; in assay [4] it was 1.47. Moreover, the binding result in assay [5] is “no binding (tested: 3 µg/mL)”.

B2: monoclonal antibody 18V4F (antibody, V domains shown)
VH: QVQLKESGPGLVAPSQSLSITCTVSGFSLTGYGIHWVRQPPGKGLEWLGVIWPGGGTNYNSALMSRLSISKDNSKSQVFLKMNSLQTDDTAMYYCARGPLITTEVSMDYWGQGTSVTVSS
VL: QAVVTQESALTTSPGETVTLTCRSNTGAVTTSNYANWVQEKPDHLFTGLIGGTNNRAPGVPARFSGSLIGDKAALTITGAQTEDEAIYFCALWYSNHWVFGGGTKLTVLG
notes: also called MAb 18V4F
As for B2, the binding result in assay [6], in assay [7], in assay [8], in [9], in [10] and in [11] was “no binding (tested: 3 µg/mL)” each time. Also, the binding result in assay [12], in assay [13], in assay [14], in assay [15], in assay [16] and in assay [17] was “no binding (tested: 3 µg/mL)” in each case. Moreover, the binding result in assay [18] and in assay [19] was “no binding (tested: 3 µg/mL)” in each case.

The record behind these values is patent US20150166647A1 (VLST, published 2015).
